No end group written: not given here. puromycin linker = puromycin spacer joining the C-terminus of the translated peptide to its mRNA (mRNA display); mRNA = not defined here

In assay [1] the target is biotinylated GFP1-9. In words: mRNA display pull-down with biotinylated GFP1-9, qPCR; corrected with the display efficiency. (In general: Real-time PCR tracks product formation cycle by cycle.)
In assay [2] the target is biotinylated GFP1-9. Put plainly: mRNA display pull-down: 0.42 µM Display molecule with 1 µM biotinylated GFP1-9, streptavidin beads, TEV elution, qPCR.
The target in assay [3] is biotinylated GFP1-9. In words: mRNA display pull-down with biotinylated GFP1-9, qPCR.
For assay [4], the target named is anti-ubiquitin antibody (Mouse IgG1 monoclonal antibody; clone name FK2). In words: mRNA display pull-down on anti-ubiquitin antibody (FK2) magnetic beads, qPCR; display molecule at 0.4 µM.
The target is the same in assay [5]. In words: mRNA display pull-down on anti-ubiquitin antibody (FK2) magnetic beads, qPCR; corrected with the display efficiency.
The target is the same in assay [6]. In words: mRNA display pull-down on anti-ubiquitin antibody (FK2) magnetic beads, heat elution, qPCR.
Assay [7] deals with T1, biotinylated splitNanoluc1-8.
T1 chain: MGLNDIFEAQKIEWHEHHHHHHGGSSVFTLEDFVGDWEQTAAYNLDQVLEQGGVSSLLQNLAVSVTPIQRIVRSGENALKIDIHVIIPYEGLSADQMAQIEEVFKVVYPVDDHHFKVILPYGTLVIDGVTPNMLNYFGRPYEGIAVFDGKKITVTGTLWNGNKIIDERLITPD
Put plainly: mRNA display pull-down: 33 nM Display molecule with 1 µM biotinylated splitNanoluc1-8, streptavidin beads, TEV elution, qPCR.

Assay [8] has the same target. Put plainly: mRNA display pull-down with biotinylated splitNanoluc1-8, qPCR; corrected with the display efficiency.

Regarding MEKRDHMVLLEYVTAAGITDASGSGSGSGSKK (modifications not checked) [GFP11], in assay [1], the Recovery rate (%) amounted to 0.012%. In assay [2], the Apparent recovery rate (%) is 0.0109% and the Recovered nucleic acid amount (molecules) came out at 8.95e+07 molecules. The molecule also had a fold lower recovery rate than the GFP10-11 fusion peptide in assay [3] of 1000 times.

B1: Epep-splitUb(N) (protein)
chain: MKVSALENEVSALEKEVSVLEKEVSALEKEVRALEKGSGSGSGSMQIFVKTLTGKTATLEVEPSDTIENVKAKIQDKEGIPGSGSGSGSKK
modifications: C-terminus joined through a puromycin linker to its own mRNA (reverse transcribed before the assay)
As to B1, in assay [4], the Apparent recovery rate (%) was determined as 0.0001% and the Recovered nucleic acid amount (molecules) worked out at 377000 molecules. The Recovery rate (%) in assay [5] came out at 0.0004%.

As for MDLPDDHYLSTQTILLKDLNGSGSGSGSKK (modifications not checked) [GFP10], the Recovery rate (%) in assay [1] was 0.028%. In assay [2], the Apparent recovery rate (%) is 0.0237% and the Recovered nucleic acid amount (molecules) was 2.32e+08 molecules. Further, in assay [3], the fold lower recovery rate than the GFP10-11 fusion peptide is 1000 times.

As to MMQIFVKTLTGKTATLEVEPSDTIENVKAKIQDKEGIPGSGSGSGSKK-{puromycin linker-mRNA} (reading uncertain; also: mRNA reverse transcribed before assay) [splitUb(N)], in assay [6], the Apparent recovery rate (%) is 0.931% and the Recovered nucleic acid amount (molecules) was found to be 1.63e+10 molecules. This molecule also came in with a Recovery rate (%) in assay [5] of 1.04%.

Take MGSMLFRVTINSGGGSGGGGSGVSGWRLFKKISGSGSGSGSENLYFQGKK (modifications not checked) [splitNanoluc9-10 fusion peptide]: in assay [7], the Apparent recovery rate (%) turned out to be 12.6% and the Recovered nucleic acid amount (molecules) was 3.45e+09 molecules. In addition, the Recovery rate (%) in assay [8] came out at 33.2%.
